Laboratory results as given in publication PMC4865804.

Experiments:
[1] = biological target: [ES] complex (FVIIa/TF_(PCPS)/FX) (UniProt P13726); test: enzyme inhibition kinetics (mixed-type fit, secondary plots); FX activation by FVIIa (10 pM) in complex with recombinant human TF (Innovin); FX 0.58-50 nM; ringhalexin 50-150 nM; 50 mM HEPES pH 7.4, 140 mM NaCl, 5 mM CaCl2, 1% BSA, 37 °C; FXa read by hydrolysis of 500 μM S-2222 at 405 nm
[2] = biological target: extrinsic tenase complex (FVIIa/TF_(PCPS)), the [E] complex (human) (UniProt P13726); test: as above
[3] = biological target: extrinsic tenase complex (FVIIa/TF_(PCPS)), the [E] complex (human) (UniProt P13726)

B1: ringhalexin (Ringhals extrinsic tenase complex inhibitor) (natural protein)
chain: RLCLSDYSIFSETIEICPEGHNYCFKKFPKGITRLPWVIRGCAATCPKPEAQVYVDCCARDKCNR
Work on B1 yielded a Ki' (inhibitor constant for the [ES] complex) [1] of 152 nM, a Ki [2] of 84.2 nM and an inhibition of FX activation by the reconstituted extrinsic tenase complex (FXa formed, measured by S-2222 hydrolysis); ringhalexin 100 pM to 3 μM, FX 30 nM [3] of 124 nM.
